Laboratory results reported in patent publication US11679121B2, “Morpholino oligonucleotides useful in cancer treatment” (United States Government As Represented By The Department …, priority 2018, dated 2023).
“Also recorded” adds a separate entry of the source.

Tests used:
MGMT [1] = assay: Western blot of MGMT expression in tumor cell lines after scrape-loading or transfection-agent delivery of AMONs; assay type: cell-based, human
Method: The ability of each of three AMONs (SEQ ID NO: 1, SEQ ID NO: 2, and SEQ ID NO: 3) to inhibit MGMT expression in tumor cell lines was assessed. Three MGMT expressing solid tumor cell lines (T98G Glioma, H460 and A549 non-small-cell-lung cancer cell lines) were transduced with AMONs using a scrape-loading technique (Partridge M et al, Antisense Nucleic Acid Drug Dev 6, 169-175 (1996); incorporated by reference herein). […] This was replicated in H460 and A549 NSCLC lines.
[…] transfection agents were also used to introduce the AMONs into the cells and produced similar results (FIG. 1B). MGMT silencing was not achieved when cells were exposed to AMONS without scrape-loading or liposomal transfection agents (controls).
Cells were maintained at 37° C. and in an atmosphere containing 5% CO2. Three MGMT antisense oligonucleotide sequences: SEQ ID NO: 1-5′-[…]-3′; SEQ ID NO: 2-5′-[…]-3′; SEQ ID NO: 3-5′-[…]-3′ and one non-specific control sequence: SEQ ID NO: 4-5′-[…]-3′ were synthesized and purchased from Gene Tools, LLC (Philomath, Oreg., USA). Mouse anti-tubulin antibody (T9026) was purchased from Sigma (St. Louis, Mo., USA). Anti-MGMT (#2739), caspase 3 (#9662) and phospho-p53 (Ser15) (#9284) antibodies were purchased from Cell Signaling (Danvers, Mass., USA). Mouse anti-dynamin II (sc-166526) monoclonal antibody was purchased from Santa Cruz Biotechnology (Santa Cruz, Calif., USA).
Delivery of MGMT-morpholino in vitro into the cancer cells: Scrape delivery: 10^6 cancer cells were seeded on a 10-cm culture plate. The culture plate was placed on a flat surface and the cells scraped off the surface with a sterile cell scraper. Different doses or combinations of MGMT-morpholinos were added to the cells. Scraped cell suspensions were pipetted up and down twice and transferred to another culture plate.
Transfection agent delivery: 10^6 cancer cells were seeded in 10-cm culture plate. Cells were treated with transfection agent DharmaFECT (GE Dharmacon; Lafayette, Colo., USA) and MGMT-morpholinos mixture (1:1; v/v).
(§1) Cell viability assay and western blot analyses: Cell viability and proliferation was measured using the WST-1 Proliferation Assay Kit from Chemicon International Inc. (Temecula, Calif.). Cells or tissues were harvested and then washed with ice-cold PBS twice before the addition of RIPA lysis buffer containing protease and phosphatase inhibitors. Protein concentration was quantified using the Bio-Rad method. Equal amounts of protein were loaded into each well and separated by 7.5 or 12% SDS-PAGE gel followed by transfer onto polyvinylidene difluoride membranes (BioRad, Richmond, Calif.). Membranes were blocked using 5% nonfat dry milk or 2% bovine serum albumin (BSA) in PBS-T. The blots were then incubated with primary antibodies (1:200-1:1,000) overnight at 4° C. Secondary antibody (1:5,000; Cell signaling technology, Danvers, Mass.) was incubated for 2 h at room temperature. Immunoblots were developed using the chemiluminescence detection system (Thermo Scientific, Waltham, Mass.) according to the manufacturer's protocol and autoradiography. Quantification of immunoblotting signal of respective proteins was performed using UN-SCAN-IT Gel software (Silk Scientific, Inc., Orem, Utah).

MGMT [2] = assay: Western blot of MGMT expression after ionizing-radiation-enhanced delivery of AMONs, without scrape-loading or transfection agents; assay type: cell-based, human
Method: The ability of ionizing radiation to enhance the cytosolic delivery of AMONs in T98G glioma cell lines and suppress MGMT expression was assessed. T98 G cells were exposed to AMON SEQ ID NO: 2 alone, SEQ ID NO: 3 alone, or the combination of SEQ ID NO: 1, SEQ ID NO: 2 and SEQ ID NO: 3, one hour after exposure to 1 Gy of ionizing radiation. […] As with the use of scrape loading and lysosomal transfection agents, the inhibition of expression with radiation enhanced delivery of AMONS was transient, with peak inhibition at 3 days and restoration of MGMT expression by 7 days. Based on these findings a combination of sequences 1, 2 and 3 were used for further experiments.
To determine the optimal timing for exposure to AMON with respect to exposure to radiation, T98G cell lines were exposed to AMONs 2 hours and 1 hour before radiation as well as 1 and 24 hours after radiation exposure (FIG. 2B). The best inhibition was observed when cells were exposed to AMON 24 hours after radiation. This time line was adopted for further experiments. Different tumor cell lines required different doses of radiation to enhance delivery of AMON. Knockdown could be achieved in T98G cell lines at 1 Gy while H460 and A549 cell lines required exposure to 6-12 Gy for best results with no inhibition at lower doses of ionizing radiation (FIG. 2C).
Radiation delivery: cell culture: 10^6 cancer cells were exposed to different doses of radiation (0.5-12 Gy) at room temperature using a Philips gamma chamber (Philips Medical Systems, Andover, Mass.). After irradiation, cells were treated with mixtures of MGMT-morpholinos (SEQ ID NO: 1, SEQ ID NO: 2, SEQ ID NO: 3=1:1:1; v/v/v) at different time points and at a final concentration of 15 μM.
as §1

T98G cells = assay: Temozolamide cytotoxicity after radiation and AMONs (Western blot of phosphorylated-p53 and caspase 3); assay type: cell-based, human; conditions: for Susceptibility of cells to temozolamide (phosphorylated-p53, caspase 3): T98G, AMONs 1 day after 1 Gy, 75 or 150 μg/ml temozolamide two days later, lysates 1 and 4 days, FIG. 3
Method: FIG. 3 is a flow chart of an experimental model that includes treatment of cells with radiation, morpholino oligonucleotides of SEQ ID NO: 1, SEQ ID NO: 2, and SEQ ID NO: 3, and 75 or 150 μg/ml temozolamide as indicated.
MGMT expressing glioma cell lines such as T98G are known to be resistant to the cytotoxic effects of temozolomide (Yoshino A et al, Int J Oncol 36, 1367-1377 (2010); incorporated by reference herein). AMONs were administered 1 day after exposure of the T98G cells to 1 Gy of radiation and 75 or 150 μg/ml temozolamide administered two days after administration of the AMONs. Whole cell lysates were then collected 1 and 4 days after exposure to the temozolamide and a Western blot using antibodies specific for the indicated proteins performed.
as §1

T98G = conditions: Yoshino A et al 2010; cited from earlier work
MGMT [3] = assay: Subcutaneous H460 xenograft tumors in athymic nude rats: local radiation plus iv AMON, Western blot of MGMT in tumor lysates; assay type: in vivo, human
Method: Due to the inconsistent growth of intracranial T98G cell lines, subcutaneous H460 NSCCL tumors in athymic nude rats were studied. 2.5×10^7 H460 cells were subcutaneously injected in each of their hind limbs of 6 animals. When the tumor reached 10 mm in diameter, a single dose of 5 Gy of ionizing radiation was delivered to the tumor field. AMON was administered intravenously (iv) through the femoral vein 24 hours after radiation. Tumors were harvested 3 days after exposure to AMONs.
Delivery of MGMT-morpholino in vivo: Female (200-250 g) nude (mu/rnu) and heterozygous (rnu/wt) rats were selected from the breeding colony maintained in the animal facility. For subcutaneous tumor model, a total of 2.5×10^7 cells were mixed (ratio 1:1; v/v) with Matrigel Basement Membrane Matrix (BD Biosciences, Bedford, Mass.), and the mixture was injected subcutaneously into both left and right hind legs. At d 7 after inoculation, right SQ tumor was exposed to single dose of radiation (5 Gy) with shielding the rest of body using a Philips gamma chamber (Philips Medical Systems, Andover, Mass.), and left SQ tumor of the same animal without radiation was served as control. A total of 30 mM MGMT-morpholinos SEQ ID NO: 1, SEQ ID NO: 2, SEQ ID NO: 3=1:1:1; v/v/v) was administered intravenously 24 h after irradiation. Tissues (SQ tumors, brain, liver, spleen and kidney) were harvested 3 days after morpholinos and subjected to further protein and DNA analysis.
Cell viability assay and western blot analyses: Cell viability and proliferation was measured using the WST-1 Proliferation Assay Kit from Chemicon International Inc. (Temecula, Calif.). Cells or tissues were harvested and then washed with ice-cold PBS twice before the addition of RIPA lysis buffer containing protease and phosphatase inhibitors. Protein concentration was quantified using the Bio-Rad method. […] Quantification of immunoblotting signal of respective proteins was performed using UN-SCAN-IT Gel software (Silk Scientific, Inc., Orem, Utah).

MGMT gene = assay: MGMT-gene methylation status of subcutaneous tumors by pyrosequencing; assay type: in vivo, human; conditions: after implantation, radiation or AMONs
Method: Measurement of MGMT DNA methylation status: Subcutaneous xenograft tumor DNA was isolated using DNeasy Blood & Tissue Kit from Qiagen International (Germantown, Md., USA). In order to assure the quality and purity of DNA samples, the ratio of A260/A280 was determined and recorded samples was above 1.9. The percentage methylation status of MGMT DNA at CpG islands in samples were measured at using pyrosequening.

[4] = T98G cells, scrape-loading and liposomal transfection agents
[5] = T98G cells, scrape-loading, FIG. 1A
[6] = T98G cells, AMON one hour after 1 Gy ionizing radiation, lysates 3 and 7 days, FIG. 2A

5′-ATTCCTTCACGGCCAGTCCTT-3′ (morpholino, chemistry not fully specified) [SEQ ID NO: 3]
Inhibition of MGMT expression (Western blot) (MGMT [1]; T98G cells, scrape delivery or lipofectamine/liposomal transfection, lysates 3 and 7 days after treatment, FIG. 1C): transient; also recorded: inhibition of MGMT
Time of best inhibition of MGMT expression (MGMT [1]; [4]): 3 days
Time of restoration of MGMT expression (MGMT [1]; [4]): ≤ 7 days
Inhibition of MGMT expression (Western blot) (MGMT [1]; [5]): most effective in silencing MGMT expression; also recorded: inhibition of MGMT expression
Inhibition of MGMT expression (Western blot) (MGMT [2]; [6]): inhibition of MGMT

5′-TTTCGTGCAGACCCTGCTCTT-3′ (all phosphorodiamidate morpholino (PMO)) [SEQ ID NO: 1]
Inhibition of MGMT expression (Western blot) (MGMT [1]; [5]): inhibition of MGMT expression

5′-TTCCATAACACCTGTCTGGTT-3′ (morpholino, chemistry not fully specified) [SEQ ID NO: 2]
Inhibition of MGMT expression (Western blot) (MGMT [1]; [5]): most effective in silencing MGMT expression; also recorded: inhibition of MGMT expression

SEQ ID NO: 2 and SEQ ID NO: 3: combination of morpholino oligonucleotides of SEQ ID NO: 2 and SEQ ID NO: 3 (chain 1 TTCCATAACACCTGTCTGGTT; chain 2 ATTCCTTCACGGCCAGTCCTT; morpholino, chemistry not fully specified)
Inhibition of MGMT expression (Western blot) (MGMT [2]; [6]): inhibition of MGMT

Cn1nnc2c(C(N)=O)ncn2c1=O [temozolomide, reference compound]
Dose dependence of enhanced cytotoxic effects (T98G cells; T98G after 1 Gy and AMONs, 75 and 150 μg/mL): dose dependent
Cytotoxic effects on MGMT expressing glioma cell lines (T98G): resistant

B1: combination of SEQ ID NO: 1, SEQ ID NO: 2 and SEQ ID NO: 3: mixture of MGMT-morpholinos SEQ ID NO: 1, SEQ ID NO: 2, SEQ ID NO: 3 = 1:1:1 v/v/v; used for experiments after b163 (nucleic acid)
chain 1: TTTCGTGCAGACCCTGCTCTT
chain 2: TTCCATAACACCTGTCTGGTT
chain 3: ATTCCTTCACGGCCAGTCCTT
modifications: morpholino mixture, chemistry not fully specified
notes: used for experiments after b163
Inhibition of MGMT expression (Western blot) (MGMT [1]; H460 NSCLC cells, transfection agents, 6 μM and 15 μM, FIG. 1B): inhibition of MGMT expression
Inhibition of MGMT expression (Western blot) (MGMT [1]; [5]): most effective in silencing MGMT expression
Inhibition of MGMT expression (Western blot) (MGMT [1]; T98G cells, scrape-loading, FIG. 1A, SEQ ID NO: 2, and SEQ ID NO: 3): inhibition of MGMT expression
Radiation dose required for best results (knockdown) (MGMT [2]; H460 and A549 cell lines): 6-12 Gy
Inhibition of MGMT expression at lower doses of ionizing radiation (MGMT [2]; H460 and A549 cell lines, doses below 6-12 Gy): no inhibition
Radiation dose at which knockdown could be achieved (MGMT [2]; T98G cell lines): 1 Gy
Inhibition of MGMT expression (Western blot) (MGMT [2]; T98G cells, 24 hours after exposure to the dose of radiation indicated, FIG. 2C): inhibition of MGMT
Inhibition of MGMT expression (Western blot) (MGMT [2]; T98G cells, AMON one hour after 1 Gy ionizing radiation, lysates 3 and 7 days, FIG. 2A, SEQ ID NO: 2, and SEQ ID NO: 3): inhibition of MGMT
Inhibition of MGMT expression (Western blot) (MGMT [2]; T98G cells, AMON one hour after 1 Gy ionizing radiation, lysates 3 and 7 days, FIG. 2A, listed as combination of sequences 1, 2 and 3): most effective at inhibiting MGMT expression
Time of exposure to AMON after radiation that gave the best inhibition (MGMT [2]; T98G cells, tested 2 h and 1 h before, 1 and 24 h after radiation): 24 h
Inhibition of MGMT expression (Western blot) (MGMT [2]; T98G cells, treated before or after exposure to 1 Gy radiation, FIG. 2B): inhibition of MGMT
Susceptibility of cells to temozolamide (phosphorylated-p53, caspase 3) (T98G cells): susceptible to temozolomide
Susceptibility of cells to temozolamide (phosphorylated-p53, caspase 3) (T98G cells; listed as morpholino oligonucleotides of SEQ ID NO: 1, SEQ ID NO: 2, and SEQ ID NO: 3): enhanced cytotoxic effects of temozolamide
Inhibition of MGMT expression in tumors (Western blot) (MGMT [3]; H460 subcutaneous control tumors, systemic AMON but no radiation): not seen
Inhibition of MGMT expression in tumors (Western blot) (MGMT [3]; H460 subcutaneous tumors, 5 Gy to tumor 24 hours before iv AMON, harvested 3 days after): inhibition of MGMT expression was achieved
Inhibition of MGMT expression in tumors (Western blot) (MGMT [3]; H460 subcutaneous tumors, 5 Gy to tumor 24 hours before iv AMON, harvested 3 days after, listed as combination of morpholino oligonucleotides of SEQ ID NO: 1, SEQ ID NO: 2, and SE): inhibition of MGMT expression
Changes in MGMT-gene methylation status (MGMT gene): No significant changes
